Data as given in article PMC4526739.

Columns and labels:
Experiment in all cases: EMSA
Nab2;Tbp = target: T1, Nab2;Tbp (Saccharomyces cerevisiae;Saccharomyces …, UniProt P32505;P13393 1-525;1-240, |)
T1 sequence 1: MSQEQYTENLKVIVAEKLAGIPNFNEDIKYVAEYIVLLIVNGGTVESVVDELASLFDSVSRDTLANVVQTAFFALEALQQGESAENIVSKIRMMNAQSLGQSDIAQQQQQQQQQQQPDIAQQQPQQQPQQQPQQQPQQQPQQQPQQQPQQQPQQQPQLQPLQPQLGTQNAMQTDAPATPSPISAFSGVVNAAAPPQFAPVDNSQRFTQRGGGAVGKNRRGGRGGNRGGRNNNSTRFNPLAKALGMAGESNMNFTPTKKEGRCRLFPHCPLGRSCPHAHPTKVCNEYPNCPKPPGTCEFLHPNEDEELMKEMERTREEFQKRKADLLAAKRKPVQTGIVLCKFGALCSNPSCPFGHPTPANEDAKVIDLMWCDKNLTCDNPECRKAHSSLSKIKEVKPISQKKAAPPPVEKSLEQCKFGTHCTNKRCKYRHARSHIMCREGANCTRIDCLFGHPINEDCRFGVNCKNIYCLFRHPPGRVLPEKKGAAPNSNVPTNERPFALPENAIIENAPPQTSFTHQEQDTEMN
T1 sequence 2: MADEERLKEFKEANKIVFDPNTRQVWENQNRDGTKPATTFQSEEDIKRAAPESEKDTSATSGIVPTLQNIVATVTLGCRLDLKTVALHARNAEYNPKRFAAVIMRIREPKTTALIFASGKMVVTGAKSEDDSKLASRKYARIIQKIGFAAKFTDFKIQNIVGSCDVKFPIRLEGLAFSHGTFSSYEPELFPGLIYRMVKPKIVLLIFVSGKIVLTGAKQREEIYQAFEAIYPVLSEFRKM

Nab2;Tbp;Brf1;Bdp1 = Nab2;Tbp;Brf1;Bdp1 (Saccharomyces cerevisiae;Saccharomyces …, UniProt P32505;P13393;P29056;P46678 1-525;1-240;1-596;1-594, |||)
Nab2;Tbp;Brf1 = target: T2, Nab2;Tbp;Brf1 (Saccharomyces cerevisiae;Saccharomyces …, UniProt P32505;P13393;P29056 1-525;1-240;1-596, ||)
T2 sequence 1: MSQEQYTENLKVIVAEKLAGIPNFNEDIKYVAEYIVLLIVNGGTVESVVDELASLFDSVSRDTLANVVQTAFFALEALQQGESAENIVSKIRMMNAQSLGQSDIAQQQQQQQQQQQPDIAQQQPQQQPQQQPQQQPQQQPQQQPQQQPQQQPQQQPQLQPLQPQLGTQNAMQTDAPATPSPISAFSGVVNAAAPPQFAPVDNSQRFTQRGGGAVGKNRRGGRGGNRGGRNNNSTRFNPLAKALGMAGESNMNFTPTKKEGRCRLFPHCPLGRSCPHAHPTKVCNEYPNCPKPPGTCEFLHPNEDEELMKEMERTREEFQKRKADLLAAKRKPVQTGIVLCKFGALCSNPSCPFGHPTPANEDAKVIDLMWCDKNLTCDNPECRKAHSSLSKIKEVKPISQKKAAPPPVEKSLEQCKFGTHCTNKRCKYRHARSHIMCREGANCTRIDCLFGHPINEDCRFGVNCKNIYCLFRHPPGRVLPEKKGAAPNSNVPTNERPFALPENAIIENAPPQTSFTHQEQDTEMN
T2 sequence 2: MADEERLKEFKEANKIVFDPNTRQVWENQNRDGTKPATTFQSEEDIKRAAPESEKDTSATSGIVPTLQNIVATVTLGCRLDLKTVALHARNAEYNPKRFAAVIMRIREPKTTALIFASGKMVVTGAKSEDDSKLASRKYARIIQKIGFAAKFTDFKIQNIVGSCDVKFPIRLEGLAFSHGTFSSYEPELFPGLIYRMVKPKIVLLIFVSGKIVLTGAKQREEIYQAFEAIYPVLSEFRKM
T2 sequence 3: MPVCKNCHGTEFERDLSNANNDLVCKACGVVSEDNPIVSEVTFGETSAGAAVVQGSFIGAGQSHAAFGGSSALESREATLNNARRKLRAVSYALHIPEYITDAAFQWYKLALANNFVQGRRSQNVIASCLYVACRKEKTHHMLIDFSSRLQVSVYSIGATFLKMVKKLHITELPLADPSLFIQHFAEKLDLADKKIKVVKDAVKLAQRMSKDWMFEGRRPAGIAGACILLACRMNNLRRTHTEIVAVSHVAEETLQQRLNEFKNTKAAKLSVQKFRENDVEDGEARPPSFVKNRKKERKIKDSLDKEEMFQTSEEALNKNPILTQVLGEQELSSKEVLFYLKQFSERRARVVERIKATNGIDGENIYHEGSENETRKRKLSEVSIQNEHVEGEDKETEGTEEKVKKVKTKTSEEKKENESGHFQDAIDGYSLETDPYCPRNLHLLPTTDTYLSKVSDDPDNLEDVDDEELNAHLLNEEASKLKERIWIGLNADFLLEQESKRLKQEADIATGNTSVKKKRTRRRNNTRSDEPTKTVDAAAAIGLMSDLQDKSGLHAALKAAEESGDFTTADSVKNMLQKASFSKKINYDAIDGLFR

Measured: binding result

Chain of Nab2;Tbp;Brf1;Bdp1 (P46678 whole entry, one chain of several): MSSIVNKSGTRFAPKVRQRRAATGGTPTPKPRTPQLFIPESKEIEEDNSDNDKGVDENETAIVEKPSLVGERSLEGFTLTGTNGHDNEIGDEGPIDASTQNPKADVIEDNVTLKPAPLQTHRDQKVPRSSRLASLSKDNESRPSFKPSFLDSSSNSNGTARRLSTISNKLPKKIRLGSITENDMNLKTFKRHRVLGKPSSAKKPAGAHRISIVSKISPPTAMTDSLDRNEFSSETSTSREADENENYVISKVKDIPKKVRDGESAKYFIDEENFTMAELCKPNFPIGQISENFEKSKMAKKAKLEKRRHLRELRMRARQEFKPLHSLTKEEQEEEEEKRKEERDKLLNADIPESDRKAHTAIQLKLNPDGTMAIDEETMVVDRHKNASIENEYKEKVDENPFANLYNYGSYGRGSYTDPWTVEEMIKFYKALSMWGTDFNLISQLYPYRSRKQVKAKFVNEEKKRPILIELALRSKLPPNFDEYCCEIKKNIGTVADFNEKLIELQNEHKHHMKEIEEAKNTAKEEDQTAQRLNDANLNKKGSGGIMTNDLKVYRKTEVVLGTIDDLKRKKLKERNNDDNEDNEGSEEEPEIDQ

B1: TA-30-B6 (dsDNA)
DNA 1: GCTGAAATCTCTTTTTCAATTGCTCCGGTGTATAAAGCCGCGGTCCCTTACTCTTTCTTCAACAATTAAATACTC
DNA 2: GAGTATTTAATTGTTGAAGAAAGAGTAAGGGACCGCCCCTTTATTGACCGGAGCAATTGAAAAAGAGATTTCAGC
binds: Nab2;Tbp | Nab2;Tbp;Brf1;Bdp1 | Nab2;Tbp;Brf1
